Measurements as given in patent US20260265354A1 (JIANGSU MABWELL HEALTH PHARMACEUTICAL R AND D, published 2026).
Numbering of substitutions follows the chain as printed.

B1: Antibody R012 (antibody, V domains shown)
VH: SKSVEESGGRLVTPGTPLTLTCTVSGFSLSTYAMSWVRQAPGKGLEYIGIISGRGTTYYASWLKGRFTISKTSTTVDLKITSPTTEDTATYFCARDAGISDVYTGYFNLWGQGTLVTVSS
VL: QPVLAQLPSASAALGASAKLTCTLSSAHRTYTIAWYQQQQGEAPRYLMMLKSDGSYTKGTGVPDRFSGSSSGADRYLIISSVQAADEADYYCGADDSGGYVFGGGTQLTVTG
notes: Rabbit monoclonal antibody from phage display; also called Nectin-4 rabbit monoclonal antibody R012; rabbit antibody R012
B2: Antibody R036 (antibody, V domains shown)
VH: SQSVEESGGRLVTPGTPLTLTCTVSGFSLSSYAMSWVRQAPGKGLEYIGIIGGRGTTYYAIWAKGRFTISKTSTTVDLKITSPTTEDTATYFCARDAGTTYVGTTYVATGYFNLWGQGTLVTVSS
VL: B1 VL with A5T, L7P, R29K, M49I, K58R, A85D
notes: Rabbit monoclonal antibody from phage display; also called Nectin-4 rabbit monoclonal antibody R036; rabbit antibody R036
B3: Antibody MM11 (antibody, mouse IgG1, kappa, V domains shown)
VH: DVQLQESGPGLVKPSQSLSLTCSVTGYSITSNFYWNWIRQFPGNRLEWMGYISYDGSNNYNPSLKNRISISRDTSKNQFFLKLNSVTTEDTATYYCVRADYWGQGTLVTVSA
VL: DTVMTQTPLSLPVSLGDQASISCRSSQSLESSDGHAYLNWYLQKPGQSPQLLIYRVSNRFSGVLHRFSGSGSGTDFTLKISRVEAEDLGVYFCLQFTHVPFTFGSGTKLEIKR
notes: Mouse monoclonal antibody from hybridoma; also called Nectin-4 mouse monoclonal antibody MM11; mouse antibody MM11

These binders were tested against T1, Nectin-like-3 (UniProt Q8N3J6 25-367, limits assumed) (assay: ELISA, coated antigen, antibody at 10000 ng/ml).
T1 construct: Bought recombinant protein; also called CADM2; IgSF4D
T1 sequence (looked up): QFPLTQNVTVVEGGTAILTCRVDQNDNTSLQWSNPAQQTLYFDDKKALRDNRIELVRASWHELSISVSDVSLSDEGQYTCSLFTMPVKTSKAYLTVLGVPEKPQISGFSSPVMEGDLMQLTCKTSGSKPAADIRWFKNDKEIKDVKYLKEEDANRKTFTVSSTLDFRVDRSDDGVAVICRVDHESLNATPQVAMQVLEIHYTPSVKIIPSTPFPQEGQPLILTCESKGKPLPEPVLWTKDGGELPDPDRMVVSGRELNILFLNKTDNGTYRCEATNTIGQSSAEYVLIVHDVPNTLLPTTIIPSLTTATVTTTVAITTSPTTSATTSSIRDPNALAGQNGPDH
Procedure: (§1) Coating: Nectin-1, Nectin-2, Nectin-3, Nectin-4, Nectin-like-1, Nectin-like-2, Nectin-like-3, Nectin-like-4, and Nectin-like-5 were diluted to 5 μg/ml in coating buffer (carbonate buffer, pH 9.6) respectively. A 96-well plate was coat with 100 μl per well and incubated overnight at 2-8° C.;
(§2) Sample loading: The plate was taken out, patted dry, and washed twice with 200 μl/well of PBST, then patted dry. The Nectin-4 antibodies prepared in Example 1 (antibody MM11, antibody R012, and antibody R036) were diluted with 1% BSA/PBST to concentrations of 10 μg/ml, 1 μg/ml, 100 ng/ml, and 10 ng/ml, respectively. 1% BSA/PBST solution for dilution was set as a blank control. 100 μl per well was added to the 96-well plate, and incubated at room temperature for 2 hours;
(§3) Reaction termination and plate reading: 100 μl/well of 1 mol/L H3PO4 was added to terminate the reaction and the plated was read. The absorbances of wells in the plate at 450 nm with 650 nm as reference wavelength were read and recorded as OD_{450 nm-650 nm}.
For B1, the OD detection value was 0.009 OD450 nm-650 nm.
Work on B2 yielded an OD detection value of 0.008 OD450 nm-650 nm.
With B3 the OD detection value was 0.032 OD450 nm-650 nm.

Each binder was assayed against T2, Nectin-like-4 (UniProt Q8NFZ8 21-324, limits assumed) (assay: ELISA, coated antigen, antibody at 10000 ng/ml).
T2 construct: Bought recombinant protein; also called CADM4; IgSF4C
T2 sequence (looked up): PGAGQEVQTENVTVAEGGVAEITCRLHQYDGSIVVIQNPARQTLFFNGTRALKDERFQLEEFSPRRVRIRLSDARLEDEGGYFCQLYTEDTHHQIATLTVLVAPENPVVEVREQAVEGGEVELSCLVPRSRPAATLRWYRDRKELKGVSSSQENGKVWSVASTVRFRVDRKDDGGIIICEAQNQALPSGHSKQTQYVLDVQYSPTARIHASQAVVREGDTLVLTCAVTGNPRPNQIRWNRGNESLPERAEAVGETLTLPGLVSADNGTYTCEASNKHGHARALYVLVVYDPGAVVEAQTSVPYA
Procedure: as §1, §2, §3
B1 showed an OD detection value of 0.007 OD450 nm-650 nm.
Binder B2 has an OD detection value of 0.006 OD450 nm-650 nm.
Work on B3 yielded an OD detection value of 0.009 OD450 nm-650 nm.

These binders were tested against T3, Nectin-like-5 (UniProt P15151 21-343) (assay: ELISA, coated antigen, antibody at 10000 ng/ml).
T3 construct: Bought recombinant protein; also called CD155; PVR
T3 sequence (looked up): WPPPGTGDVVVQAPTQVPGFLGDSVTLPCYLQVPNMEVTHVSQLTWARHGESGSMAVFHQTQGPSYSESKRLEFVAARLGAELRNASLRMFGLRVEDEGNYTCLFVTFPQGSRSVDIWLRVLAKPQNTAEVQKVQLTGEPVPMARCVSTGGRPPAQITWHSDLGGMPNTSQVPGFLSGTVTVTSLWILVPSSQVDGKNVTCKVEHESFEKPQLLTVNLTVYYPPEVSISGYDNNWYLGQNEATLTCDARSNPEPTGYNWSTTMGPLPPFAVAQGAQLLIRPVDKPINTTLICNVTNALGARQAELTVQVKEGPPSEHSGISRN
Procedure: as §1, §2, §3
With B1 the OD detection value was 0.008 OD450 nm-650 nm.
With B2 the OD detection value was 0.009 OD450 nm-650 nm.
Binder B3 has an OD detection value of 0.008 OD450 nm-650 nm.

The binders below were run against T4, Nectin-1 (UniProt Q15223 31-334, limits assumed) (assay: ELISA, coated antigen, antibody at 10000 ng/ml).
T4 construct: Bought recombinant protein; also called CD111; PVRL-1
T4 sequence (looked up): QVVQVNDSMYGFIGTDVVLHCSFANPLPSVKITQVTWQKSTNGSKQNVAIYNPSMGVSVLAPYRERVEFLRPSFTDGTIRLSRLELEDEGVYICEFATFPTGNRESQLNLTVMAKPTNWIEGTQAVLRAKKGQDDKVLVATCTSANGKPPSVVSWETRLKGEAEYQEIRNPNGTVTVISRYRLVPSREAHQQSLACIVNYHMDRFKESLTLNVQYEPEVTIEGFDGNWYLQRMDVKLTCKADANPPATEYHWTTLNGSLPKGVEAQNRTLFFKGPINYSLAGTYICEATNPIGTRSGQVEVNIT
Procedure: as §1, §2, §3
For B1, the OD detection value was 0.008 OD450 nm-650 nm.
In the case of B2, the OD detection value is reported as 0.006 OD450 nm-650 nm.
With B3 the OD detection value was 0.012 OD450 nm-650 nm.

The binders below were run against T5, Nectin-2 (UniProt Q92692 32-360, limits assumed) (assay: ELISA, coated antigen, antibody at 10000 ng/ml).
T5 construct: Bought recombinant protein; also called CD112; PVRL-2
T5 sequence (looked up): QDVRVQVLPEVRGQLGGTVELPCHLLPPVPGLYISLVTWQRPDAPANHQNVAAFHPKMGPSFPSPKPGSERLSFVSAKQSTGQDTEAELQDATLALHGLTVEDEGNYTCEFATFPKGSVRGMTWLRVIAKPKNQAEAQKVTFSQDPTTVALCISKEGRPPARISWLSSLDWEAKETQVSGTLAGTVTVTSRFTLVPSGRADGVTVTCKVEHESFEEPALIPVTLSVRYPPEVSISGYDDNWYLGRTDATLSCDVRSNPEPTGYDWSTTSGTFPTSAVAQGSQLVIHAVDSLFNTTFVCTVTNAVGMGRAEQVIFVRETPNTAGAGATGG
Procedure: as §1, §2, §3
With B1 the OD detection value was 0.008 OD450 nm-650 nm.
With B2 the OD detection value was 0.007 OD450 nm-650 nm.
With B3 the OD detection value was 0.017 OD450 nm-650 nm.

These binders were tested against T6, Nectin-3 (UniProt Q9NQS3 58-404, limits assumed) (assay: ELISA, coated antigen, antibody at 10000 ng/ml).
T6 construct: Bought recombinant protein; also called CD113; PVRL-3
T6 sequence (Q9NQS3 58-404 limits assumed): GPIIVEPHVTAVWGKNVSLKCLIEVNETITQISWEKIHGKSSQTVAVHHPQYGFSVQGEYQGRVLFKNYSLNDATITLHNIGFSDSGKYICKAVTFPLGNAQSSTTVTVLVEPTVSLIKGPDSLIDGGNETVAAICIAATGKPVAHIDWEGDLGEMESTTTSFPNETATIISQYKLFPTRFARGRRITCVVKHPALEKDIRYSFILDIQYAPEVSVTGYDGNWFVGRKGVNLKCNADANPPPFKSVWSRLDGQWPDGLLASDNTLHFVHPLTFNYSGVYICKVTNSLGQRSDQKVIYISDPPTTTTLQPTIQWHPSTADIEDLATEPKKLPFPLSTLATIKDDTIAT
Procedure: as §1, §2, §3
In the case of B1, the OD detection value is reported as 0.007 OD450 nm-650 nm.
Binder B2 has an OD detection value of 0.008 OD450 nm-650 nm.
With B3 the OD detection value was 0.006 OD450 nm-650 nm.

What follows are binders tested against T7, Nectin-like-1 (UniProt Q8N126 25-330, limits assumed) (assay: ELISA, coated antigen, antibody at 10000 ng/ml).
T7 construct: Bought recombinant protein; also called CADM3; IgSF4B
T7 sequence (looked up): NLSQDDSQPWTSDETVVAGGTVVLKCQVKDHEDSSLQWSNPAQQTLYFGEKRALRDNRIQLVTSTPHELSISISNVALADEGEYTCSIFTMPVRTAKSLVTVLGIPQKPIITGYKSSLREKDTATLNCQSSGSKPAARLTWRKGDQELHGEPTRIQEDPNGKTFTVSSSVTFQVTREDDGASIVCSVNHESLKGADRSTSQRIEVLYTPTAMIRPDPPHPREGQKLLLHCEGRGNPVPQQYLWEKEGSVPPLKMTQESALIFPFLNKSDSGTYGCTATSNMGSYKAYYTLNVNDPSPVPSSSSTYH
Procedure: as §1, §2, §3
B1 gave an OD detection value of 0.009 OD450 nm-650 nm.
B2 showed an OD detection value of 0.008 OD450 nm-650 nm.
In the case of B3, the OD detection value is reported as 0.012 OD450 nm-650 nm.
